Key:
CstF-64 RRM = biological target: T1, CstF-64 RRM (Homo sapiens, UniProt P33240 1-107); assay: NMR (1H-15N HSQC titration); 10 mM phosphate pH 6.0, 2 mM TCEP, 30 C; 15N-labeled protein titrated with unlabeled RNA; conditions: protein: recombinant; tags: His6-TEV, removed by TEV; label: none; single strand
T1 sequence: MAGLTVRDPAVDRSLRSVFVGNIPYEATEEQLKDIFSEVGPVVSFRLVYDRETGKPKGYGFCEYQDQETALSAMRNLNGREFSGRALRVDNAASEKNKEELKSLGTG

[1] = biological target: T2, CstF-64 RRM-Hinge;CstF-77 MT (MT-CTD lacking last 30 aa) (Homo sapiens;Homo sapiens, UniProt P33240;Q12996 1-195;607-687, |del688-717); assay: as above; conditions: protein: recombinant;recombinant, tags: His6-TEV, removed by TEV;MBP-TEV, copies: 1;1, label: none, single strand
T2 sequence 1: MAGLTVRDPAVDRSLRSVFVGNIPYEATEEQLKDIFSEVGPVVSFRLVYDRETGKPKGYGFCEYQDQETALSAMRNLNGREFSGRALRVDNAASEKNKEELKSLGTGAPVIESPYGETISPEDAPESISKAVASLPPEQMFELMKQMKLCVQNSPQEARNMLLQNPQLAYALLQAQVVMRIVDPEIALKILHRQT
T2 sequence 2: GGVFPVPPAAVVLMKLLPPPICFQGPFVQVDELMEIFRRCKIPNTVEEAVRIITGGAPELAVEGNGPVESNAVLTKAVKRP

[2] = biological target: T3, CstF-64 RRM-Hinge;CstF-77 MT-CTD (Homo sapiens;Homo sapiens, UniProt P33240;Q12996 1-195;607-717, |); assay: NMR (1H-15N HSQC titration); smaller CSPs; last 30 aa of CstF-77 show no significant CSP; 10 mM phosphate pH 6.0, 2 mM TCEP, 30 C; 15N-labeled protein titrated with unlabeled RNA; conditions: protein: recombinant;recombinant, tags: His6-TEV, removed by TEV;MBP-TEV, copies: 1;1, label: none, single strand
T3 sequence 1: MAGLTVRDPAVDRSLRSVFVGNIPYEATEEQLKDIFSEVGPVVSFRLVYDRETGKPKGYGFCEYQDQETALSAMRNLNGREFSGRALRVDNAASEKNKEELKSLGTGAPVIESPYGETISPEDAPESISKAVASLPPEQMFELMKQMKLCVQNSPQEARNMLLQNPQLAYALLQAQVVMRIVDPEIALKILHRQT
T3 sequence 2: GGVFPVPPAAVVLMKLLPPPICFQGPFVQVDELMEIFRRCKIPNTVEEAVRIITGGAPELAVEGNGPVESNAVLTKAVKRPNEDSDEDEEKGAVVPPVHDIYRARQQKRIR

Binder: AUUUUAUGUUUCAGGU (ssRNA) [SVL RNA]
- Kd (CstF-64 RRM): 0.7 ± 0.4 µM
- Kd [1]: 3.5 ± 1 µM
- Kd [2]: 3.3 ± 2.3 µM

Reference: PMC6294498, “The structural basis of CstF-77 modulation of cleavage and polyadenylation through stimulation of CstF-64 activity”
